Experiment [1] has as its target T1, purified human Bmp9 (human, UniProt Q9UK05 320-429, limits assumed).
T1 construct: also called Bone Morphogenetic Protein 9
T1 sequence (looked up): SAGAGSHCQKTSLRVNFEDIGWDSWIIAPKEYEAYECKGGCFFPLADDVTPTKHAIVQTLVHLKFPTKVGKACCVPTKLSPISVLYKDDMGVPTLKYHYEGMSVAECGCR
The experiment in a line: sandwich ELISA: cENG10 coated at 4 ug/mL, serial dilutions of Bmp9 alone, bound Bmp9 detected with biotinylated anti-Bmp9 antibody and an HRP conjugate. The protocol:
(§1) For the ELISA experiment shown, cENG10 antibody was coated onto microplates and incubated with the analyte (a preformed Bmp9/sEng complex, Bmp9 alone, or sEng alone). Bound Bmp9 was detected using a biotinylated anti-Bmp9 antibody and a secondary, HRP-conjugated antibody, allowing for colorimetric detection of cENG10 binding to the Bmp9/sEng complex.
(§2) To test whether or not antibody cENG10 blocks binding of sEng and its ligands was assessed using a sandwich ELISA. To that end, purified human Bmp9 and sEng were mixed at equimolar ratio in PBS (final total concentration 1 μM), incubated for 30 min and serially diluted (in 1% BSA) to 0.02 to 20 nM. Control solutions containing only Bmp9 or sEng were also prepared. Antibody cENG10 (4 μg/mL) was coated onto microplate wells. After a washing step, the wells were blocked with 1% BSA. Serial dilutions of either the preformed Bmp9-sEng complex, sEng alone, or Bmp9 alone were added and the plates incubated for 90 min. After another wash step, bound Bmp9 was detected using a biotinylated anti-Bmp9 antibody and a secondary, HRP-conjugated antibody, allowing for colorimetric detection of cENG10 binding to the Bmp9/sEng complex.

Experiment [2] addresses T2, endogenous sFlt-1 in pooled serum of pre-eclampsia patients (human, UniProt P17948-2 27-687, limits assumed).
T2 construct: also called sVEGFR1; soluble Flt-1 receptor
Description: 0.1 ml column, 1 mg antibody/ml beads, pooled serum of pre-eclampsia patients.

In experiment [3] the target is T3, soluble Endoglin (sEng), recombinant, as spiked or purified protein (human, UniProt P17813 26-586, limits assumed).
T3 construct: sEng applied to columns (80 or 60 ng/ml), used in SEC and coated in ELISA; construct not specified there; also called spiked sEng
T3 sequence (looked up): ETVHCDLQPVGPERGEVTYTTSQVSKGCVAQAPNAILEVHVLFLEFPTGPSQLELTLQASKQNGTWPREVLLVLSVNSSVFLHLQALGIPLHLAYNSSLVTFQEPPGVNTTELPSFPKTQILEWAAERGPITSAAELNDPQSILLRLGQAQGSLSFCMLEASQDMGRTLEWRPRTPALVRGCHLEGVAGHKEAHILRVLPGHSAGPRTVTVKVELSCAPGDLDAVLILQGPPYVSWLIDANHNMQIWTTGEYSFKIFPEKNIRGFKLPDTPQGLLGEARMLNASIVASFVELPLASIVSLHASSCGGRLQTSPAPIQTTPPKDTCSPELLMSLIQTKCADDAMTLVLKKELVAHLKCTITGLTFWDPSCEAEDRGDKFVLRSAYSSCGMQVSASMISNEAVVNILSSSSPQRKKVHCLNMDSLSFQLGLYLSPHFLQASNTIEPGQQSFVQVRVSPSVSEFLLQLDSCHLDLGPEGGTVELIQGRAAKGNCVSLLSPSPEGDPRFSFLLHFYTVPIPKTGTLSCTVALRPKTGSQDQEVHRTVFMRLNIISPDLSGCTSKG
Description: sandwich ELISA: cENG10 coated at 4 ug/mL, serial dilutions of preformed equimolar Bmp9/sEng complex, bound Bmp9 detected with biotinylated anti-Bmp9 antibody and an HRP conjugate. The method, then: as §1, §2

The target of experiment [4] is T4, recombinant human (rh) Endoglin ectodomain (residues 1-586) containing C-terminal 6xHis tag (human, UniProt P17813 26-586).
T4 construct: range 1-586; Purified from HEK-293 cells; the stated range 1-586 includes the signal peptide; also called purified sEng antigen; sEng
T4 sequence: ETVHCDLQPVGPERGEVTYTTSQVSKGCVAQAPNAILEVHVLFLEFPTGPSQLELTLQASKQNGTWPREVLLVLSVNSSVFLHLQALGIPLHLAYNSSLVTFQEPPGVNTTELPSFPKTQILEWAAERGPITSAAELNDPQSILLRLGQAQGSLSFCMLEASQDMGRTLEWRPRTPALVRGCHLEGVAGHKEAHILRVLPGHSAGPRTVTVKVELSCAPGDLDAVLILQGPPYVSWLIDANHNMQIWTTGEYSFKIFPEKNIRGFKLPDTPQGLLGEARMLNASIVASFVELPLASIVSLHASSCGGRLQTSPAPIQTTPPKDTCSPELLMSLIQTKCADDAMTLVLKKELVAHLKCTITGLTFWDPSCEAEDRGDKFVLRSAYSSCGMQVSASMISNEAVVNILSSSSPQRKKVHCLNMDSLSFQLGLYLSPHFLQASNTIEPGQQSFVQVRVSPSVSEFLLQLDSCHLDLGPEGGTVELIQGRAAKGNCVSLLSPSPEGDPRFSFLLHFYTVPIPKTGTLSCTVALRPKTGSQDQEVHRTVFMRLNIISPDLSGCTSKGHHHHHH
The experiment in a line: BLI (Octet QK), purified MAb on Protein-G biosensor, sEng 1-586 6xHis 50 nM in solution. The protocol:
Materials: Kinetics buffer—PBS solution containing 0.1% BSA and 0.05% Tween-20. Anti-sEng antibodies were purified from ascites of mice injected with hybridoma cells by Protein-G chromatography and buffer exchanged into PBS. For each run, 22 ug/ml (or 150 nM) of each antibody was loaded onto the Protein-G biosensor tip. Purified sEng antigen recombinant human (rh) Endoglin ectodomain (residues 1-586) containing C-terminal 6×His tag was purified from HEK-293 cells by metal affinity chromatography followed by size-exclusion chromatography pre-equilibrated in PBS. For each run, 3 ug/ml (or 50 nM) of sEng was used for association to MAbs bound to Protein-G biosensor tips. Protein-G Biosensor tips were purchased from the instrument supplier.

For experiment [5], the target named is T5, recombinant human (rh) Endoglin ectodomain (residues 1-586) fused with human IgG1 Fc (human, UniProt P17813 26-586).
T5 construct: range 1-586; The stated range 1-586 includes the signal peptide, which would be absent from the secreted protein; also called sEng-Fc; sEng/Fc fusion protein; not shown: human IgG1 Fc
T5 sequence (looked up): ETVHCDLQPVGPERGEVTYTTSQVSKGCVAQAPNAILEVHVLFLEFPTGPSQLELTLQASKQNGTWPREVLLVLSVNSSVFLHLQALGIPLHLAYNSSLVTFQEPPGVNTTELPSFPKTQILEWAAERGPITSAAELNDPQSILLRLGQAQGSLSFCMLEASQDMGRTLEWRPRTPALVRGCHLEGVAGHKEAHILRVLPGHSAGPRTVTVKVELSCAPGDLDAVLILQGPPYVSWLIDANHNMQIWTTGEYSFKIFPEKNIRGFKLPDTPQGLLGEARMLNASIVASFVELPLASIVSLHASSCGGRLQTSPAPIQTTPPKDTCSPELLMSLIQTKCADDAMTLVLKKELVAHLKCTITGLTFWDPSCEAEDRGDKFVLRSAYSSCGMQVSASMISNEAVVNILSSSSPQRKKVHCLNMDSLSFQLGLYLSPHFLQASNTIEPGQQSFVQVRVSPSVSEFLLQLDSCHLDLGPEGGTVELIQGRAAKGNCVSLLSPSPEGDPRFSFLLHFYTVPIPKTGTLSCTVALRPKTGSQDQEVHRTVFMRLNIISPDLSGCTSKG
Description: BLI (Octet QK), MAb from hybridoma supernatant captured on anti-mouse IgG biosensor, sEng-Fc 170 nM in solution. The method, then: Materials: Kinetics buffer—PBS solution containing 0.1% BSA and 0.05% Tween-20 was used as the kinetics buffer. Test samples—culture supernatants from top 21 hybridoma clones with the strongest signals for binding to the sEng-Fc antigen as determined by ELISA. sEng antigen—recombinant human (rh) Endoglin ectodomain (residues 1-586) fused with human IgG1 Fc, diluted to 170 nM (30 ug/ml) with kinetics buffer. Biosensors—streptavidin biosensors, preloaded with biotinylated sheep anti-mouse IgG.
Binding affinities were determined using the ForteBio label-free Octet QK BLI system using the following protocol: [0237] i. Condition: Immerse biosensor tips in 200 uL of kinetics buffer for >10 min. [0238] ii. Baseline 1: Immerse biosensors in fresh culture medium for 1 min. [0239] iii. Load: Immerse biosensors in culture supernatant samples containing MAbs for 3 min. [0240] iv. Baseline: Immerse biosensors in kinetics buffer for 1 min. [0241] v. Binding/Association: Incubate biosensors with sEng-Fc Antigen for 5 min. [0242] vi. Dissociation: Incubate biosensors in kinetics buffer for 5 min.
Response signals (nm shifts) were used to calculate Kd values for the different antibodies.
A general note: Biolayer interferometry detects binding as a change in optical thickness at a sensor tip.

These results are taken from patent publication US20230030032A1 (AGGAMIN, published 2023).

T2 sequence (P17948 other isoform, or with tags, fused parts or gaps limits assumed): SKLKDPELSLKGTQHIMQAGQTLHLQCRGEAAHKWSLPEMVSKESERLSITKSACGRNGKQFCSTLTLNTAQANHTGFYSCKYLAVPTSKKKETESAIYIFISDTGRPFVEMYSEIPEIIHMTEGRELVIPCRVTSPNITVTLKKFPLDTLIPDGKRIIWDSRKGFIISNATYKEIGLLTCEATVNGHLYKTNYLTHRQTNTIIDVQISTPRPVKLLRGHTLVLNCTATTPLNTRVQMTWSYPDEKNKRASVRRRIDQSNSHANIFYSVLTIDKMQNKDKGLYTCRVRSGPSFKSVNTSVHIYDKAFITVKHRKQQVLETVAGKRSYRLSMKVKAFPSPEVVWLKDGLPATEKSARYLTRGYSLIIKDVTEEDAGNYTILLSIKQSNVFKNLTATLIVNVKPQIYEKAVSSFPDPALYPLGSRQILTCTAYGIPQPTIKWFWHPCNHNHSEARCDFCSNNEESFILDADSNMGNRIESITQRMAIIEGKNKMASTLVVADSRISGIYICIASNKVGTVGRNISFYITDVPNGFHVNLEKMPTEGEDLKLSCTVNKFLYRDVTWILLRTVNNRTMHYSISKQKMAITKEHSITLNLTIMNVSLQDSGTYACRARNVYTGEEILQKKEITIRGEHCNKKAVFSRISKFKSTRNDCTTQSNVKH

B1: chimeric anti-sEng antibody cENG10 (antibody, human IgG1, kappa, N297Q, V domains shown)
VH: EVQLEQSGPEVVKPGTSVKISCKTSGYTITEHTLHWIKQNQGKSLEWIGGINFDNGGTTYRQKFKDKATLTVDKSSSTAFMELRSLTSDDSAVYFCARRAYYYGSAFDYWGQGTTLTVSS
VL: ENVLTQSPAIMSASLGEKVTMTCRASSSVNYVYWYQQKSDASPKLWIYYTSNLAPGVPARFSGSGSGNSYSLTISSMEGEDAATYYCQQFISFPYTFGGGTKLEIKR
notes: Murine MAb 210 variable regions on human IgG1 / kappa constant regions; also called αEng; cENG10 (CHO-derived)
As to B1, the binding result is recorded as “no binding (tested: 20 nM)” in experiment [1] and “no binding” in experiment [2]. Besides, the “EC50 (read off the curve)” value in experiment [3] is about 3 nM.

B2: MAb 210 (antibody, V domains shown)
VH: EVQLEQSGPEVVKPGTSVKISCKTSGYTITEHTLHWIKQNQGKSLEWIGGINFDNGGTTYRQKFKDKATLTVDKSSSTAFMELRSLTSDDSAVYFCARRAYYYGSAFDYWGQGTTLTVSS
VL: ENVLTQSPAIMSASLGEKVTMTCRASSSVNYVYWYQQKSDASPKLWIYYTSNLAPGVPARFSGSGSGNSYSLTISSMEGEDAATYYCQQFISFPYTFGGGTKLEIK
notes: Murine monoclonal antibody from hybridoma; also called lead antibody
Take B2: the Kd in experiment [4] was found to be 2.2 nM; in experiment [5], 0.61 nM.

One may read the EC50 (read off the curve) as the concentration needed to bring the measured effect to its halfway point. As usually defined, the Kd is the free concentration of one partner at which half of the binding sites on the other are occupied at equilibrium, for simple one-to-one binding.
